Laboratory results from PMC9026278.

Columns and labels:
Experiment in all cases: SPR
[1] = biological target: CH2-4.10 N299A aglycosylated anti-mesothelin human IgG1 antibody (human)
[2] = biological target: CH2-4.15 N297A aglycosylated anti-mesothelin human IgG1 antibody (human)
[3] = biological target: N297A aglycosylated anti-mesothelin human IgG1 antibody (human)
[4] = biological target: CH2-4.20 N300A aglycosylated anti-mesothelin human IgG1 antibody (human)
[5] = biological target: CH2-4.16 N298A aglycosylated anti-mesothelin human IgG1 antibody (human)
[6] = biological target: CH2-4.16 N298A-tubulysin (MSLN, huG1)
[7] = biological target: CH2-4.19 N301A aglycosylated anti-mesothelin human IgG1 antibody (human)

hCD64 (from UniProt P12314 16-374) (receptor)
fold weaker binding than the corresponding glycosylated species [1]: 100 fold
fold weaker binding than the corresponding glycosylated species [2]: 100 fold
fold weaker binding than the corresponding glycosylated species [3]: 100 fold
fold weaker binding than the corresponding glycosylated species [4]: 100 fold
fold weaker binding than the corresponding glycosylated species [5]: 100 fold
Kd [6]: 172 nM
fold weaker binding than the corresponding glycosylated species [7]: 100 fold
